# According to patent US20110165161A1, “ANTI-EPCAM ANTIBODIES THAT INDUCE APOPTOSIS OF CANCER CELLS AND METHODS USING SAME” (priority 2009, published 2011):
# Substitutions are numbered along the chain they refer to.
# B1: murine monoclonal antibody 6D11 (antibody, mouse IgG1, V domains shown)
# VH: EVQLVESGGDLVKPGGSLKLSCAASGFAFDSYGMSWIRQTPGTRLEWVATISSGGYYTYYEDNVKGRFIISRDNAKNTLDLQMSGLKSEDAATYYCARRGNYDVDYYAMDYWGQGTSVIVSS
# VL: DVVLTQIPLSLPVSLGDQASISCRSSQSLEHSNGNTYLHWYLQKPGQSPKLLIYKVSNRFSGVPDRFSGSGSGTDFTLKISRVEAEDLGVYFCSQSTHVPPWTFGGGTKLEFKR
# notes: Mouse IgG1, kappa, from hybridoma; also called m338-6D11.8
# What was measured:
# [1] = molecular target: T1, human EpCAM (epithelial cell adhesion/activating molecule) (human, UniProt P16422 24-314); experiment: flow cytometry, CHO/EpCAM cells, 0.1 µg/ml antibody
# T1 construct: also called hEpCAM; CHO/EpCAM
# T1 sequence: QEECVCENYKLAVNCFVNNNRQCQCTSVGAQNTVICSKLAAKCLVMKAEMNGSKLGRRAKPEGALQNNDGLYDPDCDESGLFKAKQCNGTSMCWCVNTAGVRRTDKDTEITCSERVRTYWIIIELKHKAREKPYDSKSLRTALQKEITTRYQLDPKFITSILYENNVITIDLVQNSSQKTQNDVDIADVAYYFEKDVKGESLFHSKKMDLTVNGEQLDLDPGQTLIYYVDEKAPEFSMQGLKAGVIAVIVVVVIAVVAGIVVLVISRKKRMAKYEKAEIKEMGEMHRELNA
# Method: A 300× dilution of human cell hyper-immune serum (HPS 300×) was used as binding positive control for both cell lines here. After 1 hr incubation at 4° C., cells were washed twice with 200 μl FACS buffer (1×PBS containing 1% FBS), stained with 100 μl of 1 μg/ml goat-anti-mouse IgG-PE (Southern Biotech, Cat. No. 1032-09) in FACS buffer and then incubated at 4° C. for 30 min. Cells were washed thrice with FACS buffer and analyzed by flow cytometry (BD LSR, BD Life Sciences).
# [2] = molecular target: T1, human EpCAM (epithelial cell …); experiment: cell-based or functional assay
# [3] = molecular target: T2, EGFI-Cr1 Q47A (human, UniProt P16422 24-63); experiment: direct ELISA, coated EGFI-Cr1 fusion, 0.1 µg/ml antibody
# T2 construct: not shown: the constant region of human immunoglobulin gamma 1 heavy chain (Cr1) fused at the C-terminus
# T2 chain: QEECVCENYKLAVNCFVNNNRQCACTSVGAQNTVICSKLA
# Method: (§1) A direct ELISA was used for testing the reactivity of anti-EpCAM antibodies toward variant EpCAM mutants. Briefly, purified EpCAM EGF-1 fusion proteins (WT, Q24A, E25K, E26D, A35T, N37R, F39A, V40E, N41A, N42E, N43A, R44G, Q45A, Q47A or T49A) and irrelevant control (CEA-Cr1) were pre-diluted to 0.5 μg/ml in coating buffer (8.4 g NaHCO₃, 3.4 g Na₂CO₃ in 1 L H₂O, pH 9.5) and aliquoted (100 μl/well) into 96-well plates. […] Plates were then washed 3 times with PBST followed by the addition of the enzyme substrate TMB (BD Biosciences, Cat. No. 555214). […] The optical densities at 450 nm wavelength were measured on an ELISA plate reader.
# [4] = molecular target: T3, EGFI-Cr1 wild type (first EGF-like repeat of human EpCAM fused to the constant region of human immunoglobulin … (human, UniProt P01857-1 99-330 = IgG part)); experiment: as above
# T3 construct: cDNA covered aa 1-63; Expressed in COS-7 cells; also called WT; EpCAM EGF-1 fusion protein WT
# Method: as §1
# [5] = molecular target: T4, EGFI-Cr1 F39A (human, UniProt P16422 24-63); experiment: as above
# T4 construct: not shown: The fused constant region of human immunoglobulin gamma 1 heavy chain (Cr1)
# T4 chain: T2 chain with F16A, A24Q
# Method: as §1
# [6] = molecular target: T5, EGFI-Cr1 N41A (human, UniProt P16422 24-63); experiment: as above
# T5 construct: not shown: The fused constant region of human immunoglobulin gamma 1 heavy chain (Cr1)
# T5 chain: T2 chain with N18A, A24Q
# Method: as §1
# [7] = molecular target: T6, EGFI-Cr1 Q24A (human, UniProt P16422 25-63); experiment: as above
# T6 construct: not shown: The fused constant region of human immunoglobulin gamma 1 heavy chain (Cr1)
# T6 chain: T2 chain with Q1A, A24Q
# Method: as §1
# [8] = molecular target: T7, EGFI-Cr1 T49A (human, UniProt P16422 24-63); experiment: as above
# T7 construct: not shown: the constant region of human immunoglobulin gamma 1 heavy chain (Cr1) fused at the C-terminus
# T7 chain: T2 chain with A24Q, T26A
# Method: as §1
# [9] = molecular target: T8, EGFI-Cr1 Q45A (human, UniProt P16422 24-63); experiment: as above
# T8 construct: not shown: the constant region of human immunoglobulin gamma 1 heavy chain (Cr1) fused at the C-terminus
# T8 chain: T2 chain with Q22A, A24Q
# Method: as §1
# [10] = molecular target: T9, EGFI-Cr1 R44G (human, UniProt P16422 24-63); experiment: as above
# T9 construct: not shown: the constant region of human immunoglobulin gamma 1 heavy chain (Cr1) fused at the C-terminus
# T9 chain: T2 chain with R21G, A24Q
# Method: as §1
# [11] = molecular target: T10, EGFI-Cr1 V40E (human); experiment: as above
# T10 construct: not shown: The fused constant region of human immunoglobulin gamma 1 heavy chain (Cr1)
# T10 chain: T2 chain with V17E, A24Q
# Method: as §1
# [12] = molecular target: T11, EGFI-Cr1 E26D (human, UniProt P16422 24-63); experiment: as above
# T11 construct: not shown: The fused constant region of human immunoglobulin gamma 1 heavy chain (Cr1)
# T11 chain: T2 chain with E3D, A24Q
# Method: as §1
# [13] = molecular target: T12, EGFI-Cr1 E25K (human, UniProt P16422 24-63); experiment: as above
# T12 construct: not shown: The fused constant region of human immunoglobulin gamma 1 heavy chain (Cr1)
# T12 chain: T2 chain with E2K, A24Q
# Method: as §1
# [14] = molecular target: T13, EGFI-Cr1 N43A (human, UniProt P16422 24-63); experiment: as above
# T13 construct: not shown: the constant region of human immunoglobulin gamma 1 heavy chain (Cr1) fused at the C-terminus
# T13 chain: T2 chain with N20A, A24Q
# Method: as §1
# [15] = molecular target: T14, EGFI-Cr1 N42E (human, UniProt P16422 24-63); experiment: as above
# T14 construct: not shown: the constant region of human immunoglobulin gamma 1 heavy chain (Cr1) fused at the C-terminus
# T14 chain: T2 chain with N19E, A24Q
# Method: as §1
# [16] = molecular target: T15, EGFI-Cr1 N37R (human); experiment: as above
# T15 construct: not shown: The fused constant region of human immunoglobulin gamma 1 heavy chain (Cr1)
# T15 chain: T2 chain with N14R, A24Q
# Method: as §1
# [17] = molecular target: T16, EGFI-Cr1 A35T (human, UniProt P16422 24-63); experiment: as above
# T16 construct: not shown: The fused constant region of human immunoglobulin gamma 1 heavy chain (Cr1)
# T16 chain: T2 chain with A12T, A24Q
# Method: as §1
# [18] = molecular target: T1, human EpCAM (epithelial cell …); experiment: cell-based or functional assay; remark: listed apart in the source
binder,measurement,setting,value
B1,MFI,[1],1350 MFI
same,"% of Annexin V + PI staining (untreated background subtracted), NCI-H358, 10 µg/ml mAb, Exp1",[2],45%
same,"% of Annexin V + PI staining (untreated background subtracted), NCI-H358, 10 µg/ml mAb, Exp2",[2],40%
same,"% of Annexin V + PI staining (untreated background subtracted), NCI-H358, 10 µg/ml mAb, Exp3",[2],44%
same,"% of Annexin V + PI staining (untreated background subtracted), NCI-H358, 10 µg/ml mAb, Exp4",[2],43%
same,"% of Annexin V + PI staining (untreated background subtracted), NCI-H358, 10 µg/ml mAb, Exp5",[2],40%
same,relative binding activity (% of WT),[3],33%
same,relative binding activity (% of WT),[4],100%
same,relative binding activity (% of WT),[5],23%
same,relative binding activity (% of WT),[6],2%
same,relative binding activity (% of WT),[7],47%
same,relative binding activity (% of WT),[8],67%
same,relative binding activity (% of WT),[9],8%
same,relative binding activity (% of WT),[10],2%
same,relative binding activity (% of WT),[11],2%
same,relative binding activity (% of WT),[12],57%
same,relative binding activity (% of WT),[13],4%
same,relative binding activity (% of WT),[14],65%
same,relative binding activity (% of WT),[15],83%
same,relative binding activity (% of WT),[16],69%
same,relative binding activity (% of WT),[17],39%
same,"% Annexin V/PI-positive cells, DLD-1, 1.0 µg/ml mAb",[18],28%
same,"% Annexin V/PI-positive cells, DLD-1, 3.0 µg/ml mAb",[18],53%
same,"% Annexin V/PI-positive cells, DLD-1, 10 µg/ml mAb",[18],62%
same,"% Annexin V/PI-positive cells, FaDu, 1.0 µg/ml mAb",[18],26%
same,"% Annexin V/PI-positive cells, FaDu, 3.0 µg/ml mAb",[18],39%
same,"% Annexin V/PI-positive cells, FaDu, 10 µg/ml mAb",[18],37%
same,"% Annexin V/PI-positive cells, LNCaP, 1.0 µg/ml mAb",[18],38%
same,"% Annexin V/PI-positive cells, LNCaP, 3.0 µg/ml mAb",[18],43%
same,"% Annexin V/PI-positive cells, LNCaP, 10 µg/ml mAb",[18],44%
same,"% Annexin V/PI-positive cells, NCI-H520, 1.0 µg/ml mAb",[18],38%
same,"% Annexin V/PI-positive cells, NCI-H520, 3.0 µg/ml mAb",[18],42%
same,"% Annexin V/PI-positive cells, NCI-H520, 10 µg/ml mAb",[18],49%
same,"% Annexin V/PI-positive cells, NCI-N87, 1.0 µg/ml mAb",[18],41%
same,"% Annexin V/PI-positive cells, NCI-N87, 3.0 µg/ml mAb",[18],51%
same,"% Annexin V/PI-positive cells, NCI-N87, 10 µg/ml mAb",[18],57%
same,"% Annexin V/PI-positive cells, NIH:OVCAR-3, 1.0 µg/ml mAb",[18],46%
same,"% Annexin V/PI-positive cells, NIH:OVCAR-3, 3.0 µg/ml mAb",[18],52%
same,"% Annexin V/PI-positive cells, NIH:OVCAR-3, 10 µg/ml mAb",[18],55%
same,"% Annexin V/PI-positive cells, T-47D, 1.0 µg/ml mAb",[18],25%
same,"% Annexin V/PI-positive cells, T-47D, 3.0 µg/ml mAb",[18],40%
same,"% Annexin V/PI-positive cells, T-47D, 10 µg/ml mAb",[18],44%
